Test results as given in article PMC11167000, “Molecular mechanism of BMP signal control by Twisted gastrulation” (Nature Communications, 2024).
One block for each binder: values may come before it.

B1: human Growth Differentiation Factor 5 (GDF5, A382–R501) (ligand)
chain: MAPLATRQGKRPSKNLKARCSRKALHVNFKDMGWDDWIIAPLEYEAFHCEGLCEFPLRSHLEPTNHAVIQTLMNSMDPESTPPTCCVPTRLSPISILFIDSANNVVYKQYEDMVVESCGCR
notes: N-terminal methionine of the expression construct; Growth differentiation factor 5 (GDF5), human, UniProt P43026, residues A382–R501, no tags; Disulfide-linked dimer
B2: human CHRDL2 (A25–T429) (natural protein)
chain: ETGARARPDMFCLFHGKRYSPGESWHPYLEPQGLMYCLRCTCSEGAHVSCYRLHCPPVHCPQPVTEPQQCCPKCVEPHTPSGLRAPPKSCQHNGTMYQHGEIFSAHELFPSRLPNQCVLCSCTEGQIYCGLTTCPEPGCPAPLPLPDSCCQACKDEASEQSDEEDSVQSLHGVRHPQDPCSSDAGRKRGPGTPAPTGLSAPLSFIPRHFRPKGAGSTTVKIVLKEKHKKACVHGGKTYSHGEVWHPAFRAFGPLPCILCTCEDGRQDCQRVTCPTEYPCRHPEKVAGKCCKICPEDKADPGHSEISSTRCPKAPGRVLVHTSVSPSPDNLRRFALEHEASDLVEIYLWKLVKGIFHLTQIKKVRKQDFQKEAQHFRLLAGPHEGHWNVFLAQTLELKVTASPDKVTKT
modifications: Asn-linked glycan (predicted at Asn 114)
notes: residues of the vector between the secretion signal and CHRDL2; Chordin-like protein 2 (CHRDL2), human, UniProt Q6WN34, residues A25–T429; also called Chordin superfamily member CHRDL2; source: expressed and purified from dialyzed media using IMAC followed by SEC as the full-length TWSG1
B3: human BMP2 (ligand, UniProt P12643 283-396, looked up)
chain: QAKHKQRKRLKSSCKRHPLYVDFSDVGWNDWIVAPPGYHAFYCHGECPFPLADHLNSTNHAIVQTLVNSVNSKIPKACCVPTELSAISMLYLDENEKVVLKNYQDMVVEGCGCR
notes: Bone morphogenetic protein 2 (BMP2), human; it speaks of BMP ligands in general as dimeric
B4: human Twisted gastrulation (TWSG1), full-length glycosylated TWSG1 (Cys26–Phe223) (natural protein)
chain: ETGCNKALCASDVSKCLIQELCQCRPGEGNCSCCKECMLCLGALWDECCDCVGMCNPRNYSDTPPTSKSTVEELHEPIPSLFRALTEGDTQLNWNIVSFPVAEELSHHENLVSFLETVNQPHHQNVSVPSNNVHAPYSSDKEHMCTVVYFDDCMSIHQCKISCESMGASKYRWFHNACCECIGPECIDYGSKTVKCMNCMF
modifications: Asn-linked glycans (predicted at Asn 52, 81 and 147); fully glycosylated for binding, cellular and SEC-MALS assays; cut down to one N-acetylglucosamine with endoglycosidase F1 for crystallization
notes: residues of the vector between the secretion signal and TWSG1; Twisted gastrulation (TWSG1), human, UniProt Q9GZX9, residues C26–F223; Monomer-dimer equilibrium in solution; also called full-length TWSG1; wild-type TWSG1; source: HEK-293T, transient transfection, secreted, purified (IMAC, SEC)
B5: human BMP7 (ligand, UniProt P18075 293-431, looked up)
chain: STGSKQRSQNRSKTPKNQEALRMANVAENSSSDQRQACKKHELYVSFRDLGWQDWIIAPEGYAAYYCEGECAFPLNSYMNATNHAIVQTLVHFINPETVPKPCCAPTQLNAISVLYFDDSSNVILKKYRNMVVRACGCH
notes: Bone morphogenetic protein 7 (BMP7), human; source: bought: Miltenyi Biotec

Columns and labels:
[1] = biological target: B4; assay: SPR; equilibrium binding, Biacore T200, 25 °C; BMP2, BMP7, GDF5 or CHRDL2 amine-coupled to a CM5 chip, TWSG1 proteins as analytes; 0.15 M NaCl, 20 mM HEPES pH 7.5, 2 mM CaCl2, 0.005% Tween 20; 1:1 binding isotherm; conditions: both partners purified
[2] = biological target: the molecule itself; assay: crystal structure; TWSG1 NTD and GDF5 mixed 1:1 mol:mol, crystallized with CaCl2; 1.96 Å
[3] = biological target: the molecule itself; assay: SEC-MALS; Superdex 200 HR 10/30, 150 mM NaCl, 10 mM HEPES pH 7.5, 2 mM CaCl2, 21 °C; proteins at 2 mg/ml, 0.1 ml per injection
human CHRDL2 (A25–T429) [4] = biological target: B2; assay: as above; conditions: both partners purified
TWSG1 Ile40Ala = TWSG1 Ile40Ala (human, UniProt Q9GZX9 26-223, Ile40Ala, Asn-linked glycans (predicted Asn52, Asn81, Asn147; fully glycosylated, HEK-type expression without kifunensine); disulfide-rich. Parent construct inferred: the methods state that the C26-F223 constru); assay: SPR; as a1, BMP7 immobilized at higher level (7372 RU); conditions: both partners purified
human BMP7 = biological target: B5; assay: SPR; equilibrium binding, Biacore T200, 25 °C; BMP2, BMP7, GDF5 or CHRDL2 amine-coupled to a CM5 chip, TWSG1 proteins as analytes; 0.15 M NaCl, 20 mM HEPES pH 7.5, 2 mM CaCl2, 0.005% Tween 20; 1:1 binding isotherm; conditions: both partners purified
human CHRDL2 (A25–T429) [5] = biological target: B2; assay: as above; conditions: both partners purified
human BMP2 = biological target: B3; assay: as above; conditions: both partners purified
[6] = biological target: B1; assay: as above; conditions: both partners purified

Binder: B1
binding result [1]: binds | binding result [2]: binds

Binder: B2
binding result [3]: binds

Binder: B3
binding result [1]: binds

Binder: B4
binding result (human CHRDL2 (A25–T429) [4]): binds | stoichiometry N [3]: 2

Binder: B5
Kd (TWSG1 Ile40Ala): 454 µM | binding result [1]: binds

fold weaker than the TWSG1 NTD (human BMP7): ~100 fold | Kd (human CHRDL2 (A25–T429) [5]): 0.46 µM | fold weaker than the TWSG1 NTD (human BMP2): ~100 fold | fold weaker than the TWSG1 NTD [6]: ~100 fold
B6: human TWSG1 C-terminal domain (TWSG1 CTD, T85–F223) (domain or fragment)
chain: ETGTPPTSKSTVEELHEPIPSLFRALTEGDTQLNWNIVSFPVAEELSHHENLVSFLETVNQPHHQNVSVPSNNVHAPYSSDKEHMCTVVYFDDCMSIHQCKISCESMGASKYRWFHNACCECIGPECIDYGSKTVKCMNCMF
notes: residues of the vector between the secretion signal and the TWSG1 domain; Twisted gastrulation (TWSG1), human, C-terminal domain, residues T85–F223; The methods sentence on this construct says 'followed by ETG, TWSG1 NTD' where CTD must be meant; The structural description gives the CTD as Pro87–Phe223; source: expressed and purified from dialyzed media using IMAC followed by SEC as the …

Kd (human BMP7): 0.094 µM | Kd (human BMP2): 1.01 µM | Kd [6]: 0.38 µM
B7: human TWSG1 N-terminal domain (TWSG1 NTD, C26–S83) (domain or fragment)
chain: ETGCNKALCASDVSKCLIQELCQCRPGEGNCSCCKECMLCLGALWDECCDCVGMCNPRNYS
notes: residues of the vector between the secretion signal and TWSG1 NTD; Twisted gastrulation (TWSG1), human, N-terminal domain, residues C26–S83; Treated with endoglycosidase F1 in the purification described; The structural description gives the NTD as Cys26–Arg80; source: expressed and purified from dialyzed media similar to full-length TWSG1 (IMAC, HRV 3C cleavage, IMAC, SEC); not shown: mono Venus …
